Experimental data published in patent US5854216A, “Marker for growth hormone-releasing factor receptors” (Universite de Montreal, priority 1996, dated 1998).
pIC50: −log10 of the molar value.

Target: T1, GRF receptor of rat adenopituitary (rat, UniProt Q02644-2)
T1 sequence: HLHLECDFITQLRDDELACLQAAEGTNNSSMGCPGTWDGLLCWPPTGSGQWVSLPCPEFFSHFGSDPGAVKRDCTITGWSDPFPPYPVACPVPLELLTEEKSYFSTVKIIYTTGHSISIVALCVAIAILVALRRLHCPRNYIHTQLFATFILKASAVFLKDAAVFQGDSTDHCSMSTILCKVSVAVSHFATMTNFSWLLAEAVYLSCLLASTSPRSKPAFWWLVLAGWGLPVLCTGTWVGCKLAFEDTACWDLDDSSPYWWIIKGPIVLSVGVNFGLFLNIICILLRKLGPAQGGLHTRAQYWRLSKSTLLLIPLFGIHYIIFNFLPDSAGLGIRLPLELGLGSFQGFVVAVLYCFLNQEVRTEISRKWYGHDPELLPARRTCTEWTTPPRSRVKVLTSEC
Test: displacement of 125I-Tyr10 hGRF(1-44)NH2 from rat anterior pituitary homogenate

Substance	pIC50	Relative affinity (%) against hGRF(1-29)NH2
His^1, bpa^9, Nle^27 analogue of hGRF(1-29)NH2 (Table 7, number 17) (from UniProt P01286) (peptide)	8.36	61%
bpa^0 analogue of hGRF(1-29)NH2 (Table 7, number 13) (from UniProt P01286) (peptide)	7.46	8%
npa0 analogue of hGRF(1-29)NH2 (Table 7, number 2) (from UniProt P01286) (peptide)		14%
npa^2 analogue of hGRF(1-29)NH2 (Table 7, number 4) (from UniProt P01286) (peptide)	6.12	0.3%
npa^5 analogue of hGRF(1-29)NH2 (Table 7, number 7) (from UniProt P01286) (peptide)	7.56	10%
npa^7 analogue of hGRF(1-29)NH2 (Table 7, number 9) (from UniProt P01286) (peptide)	7.47	7.9%
npa^8 analogue of hGRF(1-29)NH2 (Table 7, number 10) (from UniProt P01286) (peptide)	7.27	5%
octanoyl^30,Cys^31 ! hGRF(1-29)NH2 (from UniProt P01286) (peptide)		35%

Further substances by rising pIC50, results first:

pIC50	Relative affinity (%) against hGRF(1-29)NH2	Substance
6.42	7%	npa^1 analogue of hGRF(1-29)NH2 (Table 7, number 3) (from UniProt P01286) (peptide)
6.71	1.3%	npa^3 analogue of hGRF(1-29)NH2 (Table 7, number 5) (from UniProt P01286) (peptide)
7.19	4%	bpa^4 analogue of hGRF(1-29)NH2 (Table 7, number 14) (from UniProt P01286) (peptide)
7.51	8.6%	npa^6 analogue of hGRF(1-29)NH2 (Table 7, number 8) (from UniProt P01286) (peptide)
7.55	9%	bpa^9 analogue of hGRF(1-29)NH2 (Table 7, number 15) (from UniProt P01286) (peptide)
8.06	31%	npa^4 analogue of hGRF(1-29)NH2 (Table 7, number 6) (from UniProt P01286) (peptide)
